Source: PMC4832192

Target: response regulator PhoP of Mycobacterium tuberculosis (M. tuberculosis) (UniProt P71814)
Assay: crystal structure

response regulator PhoP of Mycobacterium tuberculosis (from UniProt P71814 1-247) (natural protein)
stoichiometry N: 2
